Experimental data reported in patent US9067985B2, “Bacteriorhodopsin fusion membrane protein expression system” (Academia Sinica, priority 2012, dated 2015).

Assay: Phosphatase assay (Malachite Green) of purified UppP
Type: biochemical, E. coli
Settings: 100 μM Fpp as model substrate, 37° C., 0.2% DDM, pH 7.5
Description: UppP activity was determined by the Malachite Green assay using Phosphate Colorimetric Assay Kit purchased from BioVision. The enzymatic assay reaction mixture (200 μl) containing 50 mM Tris-HCl, pH 7.5, 150 mM NaCl, 0.2% DDM, 100 μM substrate (Fpp) and appropriately diluted purified UppP was incubated at 37° C. The reaction was quenched by adding 30 μl of Malachite Green Reagent and then the tubes were incubated for 30 min at room temperature. After incubation, the reaction mixture was transferred to 96-well plates and the released phosphate that reacted with Malachite Green was measured at 650 nm according to the reaction time course. The amounts of released phosphate were quantified relative to a phosphate standard curve.
For testing the phosphatase activity of UppP, assays were performed in the presence of various substrates using Malachite Green assay. Since the intended substrate, Upp, was difficult to synthesize and purify (Ghachi et al. Id.), we used farnesyl pyrophosphate (Fpp) as a model substrate. It was previously reported that another E. coli undecaprenyl pyrophosphate phosphatase, PgpB, which has no sequence homology with UppP, catalyzed the dephosphorylation of Upp with a relatively low efficiency compared to diacylglycerol pyrophosphate and farnesyl pyrophosphate lipid substrates. In our activity assay test, Fpp was a suitable substrate for UppP.

B1: UppP: E. coli integral membrane enzyme undecaprenyl pyrophosphate phosphatase purified from the HmBRI/D94N fusion expression system (protein, UniProt P60932 1-273, looked up)
Undecaprenyl-diphosphatase: MSDMHSLLIAAILGVVEGLTEFLPVSSTGHMIIVGHLLGFEGDTAKTFEVVIQLGSILAVVVMFWRRLFGLIGIHFGRPLQHEGESKGRLTLIHILLGMIPAVVLGLLFHDTIKSLFNPINVMYALVVGGLLLIAAECLKPKEPRAPGLDDMTYRQAFMIGCFQCLALWPGFSRSGATISGGMLMGVSRYAASEFSFLLAVPMMMGATALDLYKSWGFLTSGDIPMFAVGFITAFVVALIAIKTFLQLIKRISFIPFAIYRFIVAAAVYVVFF
- time-dependent phosphatase activity (released phosphate): functional protein capable of releasing free phosphate
